Among the data in paper PMC11638003, “Plant phytochrome interactions decode light and temperature signals” (The Plant Cell, 2024) are Kd, koff and kon values, retold here.

No end group written: not given here.

What all share (details): both partners purified
The target of assay [1] is T1, Arabidopsis thaliana phytochrome B, N-terminal fragment encompassing the N-terminal extension (NTE) and the … (Arabidopsis thaliana, UniProt P14713 1-651, phycocyanobilin chromophore, covalently bound).
T1 construct: Phytochrome B, Arabidopsis thaliana, GenBank CAA35222.1; N-terminal fragment with the NTE and the PCM (nPAS-GAF-PHY), lacking PAS1, PAS2 and the HKRD; source: E. coli LOBSTR, purified (Co2+-NTA IMAC, anion exchange); plasmid also encodes Synechocystis sp. heme oxygenase 1 and PcyA
T1 sequence (looked up): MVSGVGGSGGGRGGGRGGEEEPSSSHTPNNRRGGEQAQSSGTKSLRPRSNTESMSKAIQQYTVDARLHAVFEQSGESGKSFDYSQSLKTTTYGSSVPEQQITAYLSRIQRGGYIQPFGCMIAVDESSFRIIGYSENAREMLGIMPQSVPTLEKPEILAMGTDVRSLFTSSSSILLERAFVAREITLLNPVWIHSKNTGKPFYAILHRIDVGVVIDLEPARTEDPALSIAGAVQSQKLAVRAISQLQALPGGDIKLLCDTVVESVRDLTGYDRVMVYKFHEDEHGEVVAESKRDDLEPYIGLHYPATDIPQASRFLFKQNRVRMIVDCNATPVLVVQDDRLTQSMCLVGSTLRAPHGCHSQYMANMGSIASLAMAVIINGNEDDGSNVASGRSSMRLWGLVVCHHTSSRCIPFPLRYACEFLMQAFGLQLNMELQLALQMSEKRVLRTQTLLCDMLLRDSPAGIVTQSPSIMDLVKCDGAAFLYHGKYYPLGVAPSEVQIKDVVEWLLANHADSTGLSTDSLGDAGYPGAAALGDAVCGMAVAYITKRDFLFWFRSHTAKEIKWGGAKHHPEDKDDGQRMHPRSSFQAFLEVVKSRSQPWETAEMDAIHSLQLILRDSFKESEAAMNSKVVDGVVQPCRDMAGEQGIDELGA
In words: FRET or BRET; equilibrium titration: 20 nM P6A-mScarlet-I with 0 to 2,000 nM AtPhyB PCM at 15 °C after red light (658 nm); 50 mM Tris/HCl pH 8.0, 20 mM NaCl, 100 μg/mL BSA; single-site binding isotherm. A general note: BRET reads energy transfer from a luciferase to a nearby fluorophore.

In assay [2] the target is T2, Arabidopsis thaliana phytochrome B residues 1 to 982, AtPhyB (1-982) (Arabidopsis thaliana, UniProt P14713 1-982, phycocyanobilin chromophore, covalently bound).
T2 construct: the oligomeric state is not measured directly here; also called AtPhyB982; source: E. coli LOBSTR, purified (Co2+-NTA IMAC, anion exchange); plasmid also encodes Synechocystis sp. heme oxygenase 1 and PcyA
T2 sequence (looked up): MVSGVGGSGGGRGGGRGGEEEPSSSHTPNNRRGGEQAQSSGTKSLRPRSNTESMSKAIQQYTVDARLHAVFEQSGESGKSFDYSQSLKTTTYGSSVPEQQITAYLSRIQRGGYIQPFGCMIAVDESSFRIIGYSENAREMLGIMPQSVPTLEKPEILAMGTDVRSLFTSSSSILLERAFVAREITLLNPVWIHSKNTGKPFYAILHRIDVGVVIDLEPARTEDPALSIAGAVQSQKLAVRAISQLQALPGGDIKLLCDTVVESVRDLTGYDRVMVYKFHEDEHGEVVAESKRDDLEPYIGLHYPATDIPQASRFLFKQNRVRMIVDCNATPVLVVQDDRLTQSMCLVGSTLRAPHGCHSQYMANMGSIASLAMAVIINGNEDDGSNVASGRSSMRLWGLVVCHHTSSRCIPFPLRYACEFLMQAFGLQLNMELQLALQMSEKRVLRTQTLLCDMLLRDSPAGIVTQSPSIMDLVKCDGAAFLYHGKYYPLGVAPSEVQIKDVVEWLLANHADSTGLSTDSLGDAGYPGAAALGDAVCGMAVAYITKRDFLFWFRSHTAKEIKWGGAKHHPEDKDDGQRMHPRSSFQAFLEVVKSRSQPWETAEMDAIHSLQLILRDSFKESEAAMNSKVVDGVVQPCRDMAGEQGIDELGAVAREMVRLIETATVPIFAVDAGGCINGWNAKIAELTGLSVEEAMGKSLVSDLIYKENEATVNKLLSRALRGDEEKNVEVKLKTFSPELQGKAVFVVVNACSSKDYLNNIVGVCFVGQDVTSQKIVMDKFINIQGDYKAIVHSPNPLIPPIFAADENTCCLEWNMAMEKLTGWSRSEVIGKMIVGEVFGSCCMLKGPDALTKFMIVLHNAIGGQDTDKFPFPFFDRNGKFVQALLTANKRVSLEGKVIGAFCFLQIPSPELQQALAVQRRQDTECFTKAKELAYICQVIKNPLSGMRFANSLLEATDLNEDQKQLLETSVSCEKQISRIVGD
The assay can be described thus: FRET or BRET; association kinetics at 15 °C after a 0.5-s pulse of red light (658 nm, 69 mW cm^-2, optical shutter); 20 nM PIF-mScarlet-I variant with 500 to 2,000 nM AtPhyB PCM, or 30 nM P6A-mScarlet-I with 750 to 2,500 nM AtPhyB (1-982); 50 mM Tris/HCl pH 8.0, 20 mM NaCl; pseudo-first-order, linear fit of koFR against the AtPhyB concentration; kaFR corrected for the Pfr fraction; Kd calculated from kdFR and kaFR ….

Assay [3] concerns the target T2, Arabidopsis thaliana phytochrome B …. The assay is described as above. The source holds these as a separate data set.
The target in assay [4] is T1, Arabidopsis thaliana phytochrome B, …. The assay is described as above.
For assay [5] the target is unchanged. In words: FRET or BRET; as a5 (association and dissociation kinetics after a red-light pulse) at several temperatures up to 30 °C; values told for 30 °C or for 30 °C against 15 °C.

B1: P6A-mScarlet-I (Arabidopsis PIF6 residues 14 to 53, APB.A portion, fused to mScarlet-I) (domain or fragment, Arabidopsis thaliana, UniProt Q8L5W7 14-53, looked up)
chain: DQEYMELVFENGQILAKGQRSNVSLHNQRTKSIMDLYEAE-{mScarlet‑I}
notes: mScarlet-I: GenBank APD76536; source: E. coli LOBSTR, purified (IMAC, SENP2 cleavage, second IMAC, optionally anion exchange); not shown: His6-SUMO, N-terminal, cleaved; mScarlet-I, C-terminal, kept
Turning to B1, the Kd (as a rule, a measure of binding affinity in units of concentration) in assay [1] was 130 ± 80 nM; in assay [2], 1400 nM; in assay [3], 1050 ± 240 nM; in assay [4], 183 ± 48 nM; in assay [5], around 900 nM. In addition, the koff (as a rule, the first-order rate constant of dissociation) in assay [3] was 0.095 s⁻¹; in assay [4], 0.11 s⁻¹. Further, the on-rate constant (kon) (in general, the second-order rate constant of association) in assay [3] was 90000 M⁻¹ s⁻¹; in assay [4] it was 610000 M⁻¹ s⁻¹.
